According to patent publication US20220273713A1, “METHOD OF INHIBITING OR ACTIVATING GAMMA DELTA T CELLS” (The University of Melbourne, priority 2019, published 2022):
Values joined by “and” are separate entries in the source; they are usually repeats but may differ in a detail not shown here. Identical values can stand only once. “Also recorded” adds a separate entry of the source.

What was measured:
[1] = tested on: LM-MEL-62 melanoma cells; assay: In vitro killing assays (antibody titration, E:T titration), MTS; type: cell-based, human
Experimental: Vγ9Vδ2 cells were isolated from either healthy donor (Red Cross Australia) or cancer patient derived PBMC using TCRγ/δ+ T Cell Isolation Kit (Miltenyi). Patients provided informed consent and research was approved under HREC 14/425. […] For all assays LM-MEL-62 melanoma cells were plated out at 10,000 cells/well in 100 μl RF10 media in 96-well flat bottomed plates and left to adhere overnight at 37 degrees C. and 5% CO2. […] Cells were incubated at 37 degrees C. and 5% CO2. At day 3 Vγ9Vδ2 cells were washed out and 100 μl MTS reagent was added to wells for 1 hour as per manufacturers protocol (Promega, USA). Plates were subsequently read at 490 nm using a Spectrostar Nano microplate reader (BMG Labtech) to determine cell viability corrected for background absorbance.

[2] = tested on: PBMCs; assay: Luminex (PBMCs): cytokine/chemokine expression in freshly isolated PBMCs; type: cell-based, human
Experimental: Blood from a healthy donor (Red Cross Australia) was ficolled, PBMC layer collected, washed and 5×10^5 cells were treated with the indicated antibodies in duplicates @ 10 μg/ml in 500 ul TCRPMI supplemented with 100u/ml IL-2 and incubated at 37 degrees C. and 5% CO2 for 16 hrs. Supernatants were collected and submitted for Luminex Human 20-plex Inflammation panel analysis (EPX200-12185-901) to Crux Biolabs (Scoresby, VIC, Australia). This measures the following analytes: GM-CSF; ICAM-1, IFN-α; IFN-g, IL-1α, IL-1b, IL-10, IL-12p70, IL-13, IL-17A, IL-4, IL-8, IP-10, MCP-1, IL-6, MIP-1α, MIP-1b, sE-selectin, sP-Selectin, TNF-α. All samples were run with appropriate controls and standards. Treatment with antibody 259 was only performed in one well.

[3] = tested on: Vγ9Vδ2 cells; assay: Luminex (Vγ9Vδ2): cytokine/chemokine secretion by pre-expanded Vγ9Vδ2 cells; type: cell-based, human; settings: for IL-4 / IL-8 / GMCSF / ICAM-1 / IFNγ / IL-13 / IL-17A / MIP-1a / MIP-1b / TNFα / sE-selectin / sP-Selectin: 16 hrs, antibodies 10 μg/ml, Zoledronic acid 4 μM, HMBPP 0.5 ng/ml, duplicates, 0 set to 0.1;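 as to all read-outs here: Vγ9Vδ2 cells purified from PBMC, activated 48 h with CD3 and CD28 plus IL-2, expanded 14 days in IL-2, then thawed and rested overnight in IL-2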
Experimental: Briefly, Vγ9Vδ2 cells were isolated from 1 healthy donor (Red Cross Australia) and 1 cancer patient derived PBMC using TCRγ/δ+ T Cell Isolation Kit (Miltenyi). Cells were stimulated for 48 hours in TCRPMI supplemented with 100u/ml IL-2, CD3 (10 μg/ml) and CD28 (1 μg/ml). Cells were washed and grown for 14 days in TCRPMI supplemented with 100u/ml IL-2 at 37 degrees C. and 5% CO2, and then frozen down. […] Vγ9Vδ2 were defrosted and rested overnight in TCRPMI supplemented with 50u/ml IL-2 at 37 degrees C. and 5% CO2. […] All samples were run with appropriate controls and standards.

[4] = tested on: Vγ9Vδ2 cells; assay: Flow cytometry: CD25 on Vγ9Vδ2 cells without phosphoantigen or APCs; type: cell-based, human; settings: no addition of APCs or phosphoantigen; listed as 259
Excerpt: Vγ9Vδ2 cells were stained for CD3, Vδ2, CD25 and live dead viability dye as previously described and analysed on a Canto flow cytometer (BD). Cells were gated on lymphocytes, single cells, live cells, CD3+ Vδ2+, and activation determined based on CD25 expression.

[5] = biological target: T1, BTN2A2 (Homo sapiens, UniProt Q8WVV5); assay: Cross-reactivity of anti-BTN2A1 mAb to BTN2A2 (ELISA, transfected cells); type: binding
T1 sequence (Q8WVV5 33-265 limits assumed): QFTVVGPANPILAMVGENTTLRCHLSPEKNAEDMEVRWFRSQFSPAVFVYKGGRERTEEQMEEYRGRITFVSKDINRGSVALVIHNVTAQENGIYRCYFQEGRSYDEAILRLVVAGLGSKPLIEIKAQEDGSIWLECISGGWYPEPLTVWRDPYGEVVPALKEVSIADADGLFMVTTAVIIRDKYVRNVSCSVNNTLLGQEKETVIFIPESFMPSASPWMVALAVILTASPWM
Experimental: Purified recombinant proteins (0.2-20 μg/ml) were immobilized in microplate wells in PBS buffer overnight at 4° C. Non-specific binding was then blocked by incubation in PBS containing 0.05% tween 20 plus 5% skim milk powder or 0.5% (w/v) bovine serum albumin (BSA). The wells were then incubated for 60 minutes at room temperature in the presence of antibodies at 2-5 μg/mL in PBS/0.05% tween-20/2% skim milk powder or 0.5% BSA, followed by washing in PBS/0.05% tween-20. Plates were then incubated with HRP-labelled sheep anti-mouse IgG secondary antibody (Chemicon), or goat anti-mouse IgG secondary antibody (Millipore) followed by detection using 3,3′,5,5′-tetramethylbenzidine substrate (Sigma) and absorbance was measured at 450 nm using a plate reader.

[6] = PBMCs from a healthy donor, antibodies 10 μg/ml, 16 hrs, duplicates, 259 one well
[7] = γδT cells from a healthy donor, listed as 259
[8] = γδT cells from patient 1 (melanoma patient), listed as 259

B1: antibody 259: agonistic anti-BTN2A1 antibody; VL SEQ ID NO: 156, VH SEQ ID NO: 160 (antibody, V domains shown)
VH: EVQLLESGGGLVQPGGSLRLSCAASGFTFSSYAMQWVRQAPGKGLEWVSRIGPSGGGTMYADSVKGRFTISRDNSKNTLYLQMNSLRAEDMAVYYCARDLGGLSVLFDYWGQGTLVTVSS
VL: QSELTQPPSASETPGQRVTISCSGSSSNIGSNTVSWFQQLPGSAPRLLIYNDHRRPSGVPDRFSGSKSGTSASLVISGLQSQDEADYYCSAWDDSLNGVVFGGGTKLTVL
modifications: amino acid sequence of the VH of antibody 259; amino acid sequence of the VL of antibody 259
In the case of B1, the “tumour cell killing compared to treatment with zoledronic acid” value ([1]; E:T titration 2:1 to 1:16, 10 ug/ml antibody 259 or 4 uM zoledronate, both donors) is reported as “killing occurred to a lesser extent”, the “induction of LM-MEL-62 cell killing, 259 compared with 253” value ([1]; LM-MEL-62 with Vγ9Vδ2 cells 1:1, antibody titration, listed as 259) is reported as “more potent inducer of cell killing than antibody 253; also recorded: lower viability rates of LM-MEL-62 cells when compared to antibody 253” and the ICAM-1 [2, 6] is reported as 1578.36 pg/mL. It also gave an IFNγ [2, 6] of 104.96 pg/mL, an IL-1α [2, 6] of 8.7 pg/mL and an IL-1β [2, 6] of 5.19 pg/mL. It also gave an IL-6 [2, 6] of 462.59 pg/mL, an IL-8 [2, 6] of 495.89 pg/mL and an IL-10 [2, 6] of 49.99 pg/mL. It also gave an IL-17A [2, 6] of 24.59 pg/mL, an IP-10 [2, 6] of 641.08 pg/mL and an MCP-1 [2, 6] of 1023.7 pg/mL. It also gave an MIP-1α [2, 6] of 131.71 pg/mL, an MIP-1β [2, 6] of 584.34 pg/mL and a sE-selectin [2, 6] of 327.64 pg/mL. The TNFα levels ([2]; full PBMC) was “no increase”, the “IL-8 (CXCL8), CCL2 (MCP-1) and IL-6” value ([2]; full PBMC, vs isotype) was “up-regulated” and the “expression of IFNγ and sE-Selectin” value ([2]; full PBMC, vs isotype) was “increased expression”. The “cytokine/chemokine secretion, in words” value ([3]; across both donors) was “substantial increase in multiple analytes”, the “cytokine/chemokine secretion, in words” value ([3]; healthy donor derived Vγ9Vδ2 cells, vs isotype (BM4)) was “no IL-4 was detected” and the IL-4 ([3]; γδT cells from a healthy donor) was 0.1 pg/mL. The IL-8 ([3]; γδT cells from a healthy donor) was 0.1 pg/mL, the GMCSF [3, 7] was 578.23 pg/mL and 608.66 pg/mL and the ICAM-1 [3, 7] was 227.66 pg/mL and 226.25 pg/mL. The IFNγ [3, 7] was 359.53 pg/mL and 412.2 pg/mL, the IL-13 [3, 7] was 23.33 pg/mL and 31.31 pg/mL and the IL-17A [3, 7] was 3.7 pg/mL and 4.17 pg/mL. For the same molecule, the MIP-1a [3, 7] was 301.77 pg/mL and 286.07 pg/mL, the MIP-1b [3, 7] was 9757.6 pg/mL and 9064.66 pg/mL and the TNFα [3, 7] was 451.81 pg/mL and 481.49 pg/mL. The sE-selectin [3, 7] was 259.93 pg/mL and 300.24 pg/mL, the sP-Selectin [3, 7] was 2291.35 pg/mL and 2223.07 pg/mL and the GMCSF [3, 8] was 1135.87 pg/mL and 1151.41 pg/mL. The ICAM-1 [3, 8] was 798.07 pg/mL and 755.13 pg/mL, the IFNγ [3, 8] was 598.1 pg/mL and 740.33 pg/mL and the IL-4 [3, 8] was 490.79 pg/mL and 389.47 pg/mL. The IL-8 [3, 8] was 0.93 pg/mL and 1.06 pg/mL, the IL-13 [3, 8] was 399.99 pg/mL and 461.27 pg/mL and the IL-17A [3, 8] was 5.86 pg/mL and 6.55 pg/mL. For the same molecule, the MIP-1a [3, 8] was 317.76 pg/mL and 361.32 pg/mL, the MIP-1b [3, 8] was 6921.27 pg/mL and 8238.42 pg/mL and the TNFα [3, 8] was 1130.35 pg/mL and 1137.89 pg/mL. For the same molecule, the sE-selectin [3, 8] was 311.65 pg/mL and 368.09 pg/mL, the sP-Selectin [3, 8] was 2170.46 pg/mL and 2424.08 pg/mL and the “activation of Vγ9Vδ2 cells by CD25 upregulation” value [4] was “higher activation potential; also recorded: can mimic phosphoantigen mediated activation to various degrees”. For the same molecule, the “cross-reactivity to BTN2A2” value [5] was “not cross-reactive”.
